Laboratory results reported in patent US20260001928A1 (CORTERIA PHARMACEUTICALS, priority 2022, published 2026).
*1 amine or outer side, *2 acyl side, *3 side chain or, on linkers, in order; H or OH if unused. Side-chain parts run from the residue outwards. [ ]: non-standard residue; d: D form. The star is where a group is joined. C16 diacid = O=C(O)CCCCCCCCCCCCCCC(=O)*; γGlu = O=C(O)[C@H](CCC(=O)[*:2])N[*:1]; Aib = CC(C)(N)C(=O)O

Key:
CRF1R receptor = biological target: T1, CRF1R receptor (UniProt P34998 24-415, limits assumed); experiment: cell-based or functional assay
T1 sequence (looked up): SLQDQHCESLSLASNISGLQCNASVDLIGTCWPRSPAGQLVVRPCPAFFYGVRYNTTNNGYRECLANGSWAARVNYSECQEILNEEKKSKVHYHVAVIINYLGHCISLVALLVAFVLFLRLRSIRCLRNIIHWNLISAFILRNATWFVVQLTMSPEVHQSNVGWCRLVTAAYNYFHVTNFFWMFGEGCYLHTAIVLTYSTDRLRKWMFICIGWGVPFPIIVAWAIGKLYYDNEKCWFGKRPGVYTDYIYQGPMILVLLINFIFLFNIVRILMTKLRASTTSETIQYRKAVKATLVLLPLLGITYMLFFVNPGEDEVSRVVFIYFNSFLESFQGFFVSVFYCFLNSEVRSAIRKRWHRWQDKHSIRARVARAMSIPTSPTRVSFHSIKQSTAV

[1] = biological target: human corticotropin-releasing factor 2a (CRF2a receptor) (human), Q13324; experiment: cell-based or functional assay
human corticotropin-releasing factor 2a (CRF2a receptor) (human), Q13324, sequence (Q13324 20-411): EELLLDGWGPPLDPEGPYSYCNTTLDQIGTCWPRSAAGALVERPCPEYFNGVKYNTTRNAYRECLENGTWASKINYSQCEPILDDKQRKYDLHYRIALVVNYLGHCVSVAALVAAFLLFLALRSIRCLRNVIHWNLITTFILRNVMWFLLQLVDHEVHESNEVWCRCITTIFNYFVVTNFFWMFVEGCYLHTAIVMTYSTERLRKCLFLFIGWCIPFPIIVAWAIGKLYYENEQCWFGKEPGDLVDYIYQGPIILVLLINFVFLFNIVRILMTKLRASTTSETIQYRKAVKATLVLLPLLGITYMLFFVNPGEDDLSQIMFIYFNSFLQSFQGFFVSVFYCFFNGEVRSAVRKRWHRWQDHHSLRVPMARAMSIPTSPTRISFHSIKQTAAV

B1: SEQ ID NO 56 (peptide)
peptide: Ac-IVLSLD[dV]PIKLK([γGlu-C16 diacid])KILLEQEKQKKQREQAETNEQILAQV-NH2
SMILES: CC[C@H](C)[C@H](NC(C)=O)C(=O)N[C@H](C(=O)N[C@@H](CC(C)C)C(=O)N[C@@H](CO)C(=O)N[C@@H](CC(C)C)C(=O)N[C@@H](CC(=O)O)C(=O)N[C@@H](C(=O)N1CCC[C@H]1C(=O)N[C@H](C(=O)N[C@@H](CCCCN)C(=O)N[C@@H](CC(C)C)C(=O)N[C@@H](CCCCNC(=O)CC[C@H](NC(=O)CCCCCCCCCCCCCCC(=O)O)C(=O)O)C(=O)N[C@@H](CCCCN)C(=O)N[C@H](C(=O)N[C@@H](CC(C)C)C(=O)N[C@@H](CC(C)C)C(=O)N[C@@H](CCC(=O)O)C(=O)N[C@@H](CCC(N)=O)C(=O)N[C@@H](CCC(=O)O)C(=O)N[C@@H](CCCCN)C(=O)N[C@@H](CCC(N)=O)C(=O)N[C@@H](CCCCN)C(=O)N[C@@H](CCCCN)C(=O)N[C@@H](CCC(N)=O)C(=O)N[C@@H](CCCNC(=N)N)C(=O)N[C@@H](CCC(=O)O)C(=O)N[C@@H](CCC(N)=O)C(=O)N[C@@H](C)C(=O)N[C@@H](CCC(=O)O)C(=O)N[C@H](C(=O)N[C@@H](CC(N)=O)C(=O)N[C@@H](CCC(=O)O)C(=O)N[C@@H](CCC(N)=O)C(=O)N[C@H](C(=O)N[C@@H](CC(C)C)C(=O)N[C@@H](C)C(=O)N[C@@H](CCC(N)=O)C(=O)N[C@H](C(N)=O)C(C)C)[C@@H](C)CC)[C@@H](C)O)[C@@H](C)CC)[C@@H](C)CC)C(C)C)C(C)C
In the case of B1, the “Emax (% I)” value (CRF1R receptor) is reported as 3% and the EC50 [nM] (cAMP) [1] is reported as 0.3 nM.

B2: SEQ ID NO 17 (peptide)
peptide: Ac-IVLSLD[dV]PIKLK([γGlu-C16 diacid])QILLKQERQKKQREQAEKNEQILEQV-NH2
SMILES: CC[C@H](C)[C@H](NC(C)=O)C(=O)N[C@H](C(=O)N[C@@H](CC(C)C)C(=O)N[C@@H](CO)C(=O)N[C@@H](CC(C)C)C(=O)N[C@@H](CC(=O)O)C(=O)N[C@@H](C(=O)N1CCC[C@H]1C(=O)N[C@H](C(=O)N[C@@H](CCCCN)C(=O)N[C@@H](CC(C)C)C(=O)N[C@@H](CCCCNC(=O)CC[C@H](NC(=O)CCCCCCCCCCCCCCC(=O)O)C(=O)O)C(=O)N[C@@H](CCC(N)=O)C(=O)N[C@H](C(=O)N[C@@H](CC(C)C)C(=O)N[C@@H](CC(C)C)C(=O)N[C@@H](CCCCN)C(=O)N[C@@H](CCC(N)=O)C(=O)N[C@@H](CCC(=O)O)C(=O)N[C@@H](CCCNC(=N)N)C(=O)N[C@@H](CCC(N)=O)C(=O)N[C@@H](CCCCN)C(=O)N[C@@H](CCCCN)C(=O)N[C@@H](CCC(N)=O)C(=O)N[C@@H](CCCNC(=N)N)C(=O)N[C@@H](CCC(=O)O)C(=O)N[C@@H](CCC(N)=O)C(=O)N[C@@H](C)C(=O)N[C@@H](CCC(=O)O)C(=O)N[C@@H](CCCCN)C(=O)N[C@@H](CC(N)=O)C(=O)N[C@@H](CCC(=O)O)C(=O)N[C@@H](CCC(N)=O)C(=O)N[C@H](C(=O)N[C@@H](CC(C)C)C(=O)N[C@@H](CCC(=O)O)C(=O)N[C@@H](CCC(N)=O)C(=O)N[C@H](C(N)=O)C(C)C)[C@@H](C)CC)[C@@H](C)CC)[C@@H](C)CC)C(C)C)C(C)C
With B2 the “Emax (% I)” value (CRF1R receptor) was 12% and the EC50 [nM] (cAMP) [1] was 0.21 nM.

B3: SEQ ID NO 47 (peptide)
peptide: Ac-IVLSLD[dV]PIKLK([γGlu-C16 diacid])KILLEQEKQKKQREQAETNAQILAQV-NH2
SMILES: CC[C@H](C)[C@H](NC(C)=O)C(=O)N[C@H](C(=O)N[C@@H](CC(C)C)C(=O)N[C@@H](CO)C(=O)N[C@@H](CC(C)C)C(=O)N[C@@H](CC(=O)O)C(=O)N[C@@H](C(=O)N1CCC[C@H]1C(=O)N[C@H](C(=O)N[C@@H](CCCCN)C(=O)N[C@@H](CC(C)C)C(=O)N[C@@H](CCCCNC(=O)CC[C@H](NC(=O)CCCCCCCCCCCCCCC(=O)O)C(=O)O)C(=O)N[C@@H](CCCCN)C(=O)N[C@H](C(=O)N[C@@H](CC(C)C)C(=O)N[C@@H](CC(C)C)C(=O)N[C@@H](CCC(=O)O)C(=O)N[C@@H](CCC(N)=O)C(=O)N[C@@H](CCC(=O)O)C(=O)N[C@@H](CCCCN)C(=O)N[C@@H](CCC(N)=O)C(=O)N[C@@H](CCCCN)C(=O)N[C@@H](CCCCN)C(=O)N[C@@H](CCC(N)=O)C(=O)N[C@@H](CCCNC(=N)N)C(=O)N[C@@H](CCC(=O)O)C(=O)N[C@@H](CCC(N)=O)C(=O)N[C@@H](C)C(=O)N[C@@H](CCC(=O)O)C(=O)N[C@H](C(=O)N[C@@H](CC(N)=O)C(=O)N[C@@H](C)C(=O)N[C@@H](CCC(N)=O)C(=O)N[C@H](C(=O)N[C@@H](CC(C)C)C(=O)N[C@@H](C)C(=O)N[C@@H](CCC(N)=O)C(=O)N[C@H](C(N)=O)C(C)C)[C@@H](C)CC)[C@@H](C)O)[C@@H](C)CC)[C@@H](C)CC)C(C)C)C(C)C
In the case of B3, the “Emax (% I)” value (CRF1R receptor) is reported as 10% and the EC50 [nM] (cAMP) [1] is reported as 0.09 nM.

B4: SEQ ID NO 21 (peptide)
peptide: Ac-IVLSLD[dV]PIKLK([γGlu-C16 diacid])KILLKQERQKKQREQAEKN[Aib]QILEQV-NH2
SMILES: CC[C@H](C)[C@H](NC(C)=O)C(=O)N[C@H](C(=O)N[C@@H](CC(C)C)C(=O)N[C@@H](CO)C(=O)N[C@@H](CC(C)C)C(=O)N[C@@H](CC(=O)O)C(=O)N[C@@H](C(=O)N1CCC[C@H]1C(=O)N[C@H](C(=O)N[C@@H](CCCCN)C(=O)N[C@@H](CC(C)C)C(=O)N[C@@H](CCCCNC(=O)CC[C@H](NC(=O)CCCCCCCCCCCCCCC(=O)O)C(=O)O)C(=O)N[C@@H](CCCCN)C(=O)N[C@H](C(=O)N[C@@H](CC(C)C)C(=O)N[C@@H](CC(C)C)C(=O)N[C@@H](CCCCN)C(=O)N[C@@H](CCC(N)=O)C(=O)N[C@@H](CCC(=O)O)C(=O)N[C@@H](CCCNC(=N)N)C(=O)N[C@@H](CCC(N)=O)C(=O)N[C@@H](CCCCN)C(=O)N[C@@H](CCCCN)C(=O)N[C@@H](CCC(N)=O)C(=O)N[C@@H](CCCNC(=N)N)C(=O)N[C@@H](CCC(=O)O)C(=O)N[C@@H](CCC(N)=O)C(=O)N[C@@H](C)C(=O)N[C@@H](CCC(=O)O)C(=O)N[C@@H](CCCCN)C(=O)N[C@@H](CC(N)=O)C(=O)NC(C)(C)C(=O)N[C@@H](CCC(N)=O)C(=O)N[C@H](C(=O)N[C@@H](CC(C)C)C(=O)N[C@@H](CCC(=O)O)C(=O)N[C@@H](CCC(N)=O)C(=O)N[C@H](C(N)=O)C(C)C)[C@@H](C)CC)[C@@H](C)CC)[C@@H](C)CC)C(C)C)C(C)C
For B4, the “Emax (% I)” value (CRF1R receptor) was 5% and the EC50 [nM] (cAMP) [1] was 0.34 nM.
